This data set deals with the molecule itself. Kind of data set: thioflavin T fluorescence; purified C-TER (~10 µM) incubated in TBS (50 mM Tris-HCl pH 8.0, 150 mM NaCl) at ~20 °C for 96 to 144 h; 10 µM ThT, excitation 440 nm, emission 485 nm; self-assembly into amyloid fibrils; also at ~5 µM with 100 µM Cu2+, Mg2+, Ni2+ or Zn2+.

B1: C-terminal region of DPF3a (C-TERa) (domain or fragment, human, UniProt Q92784-2 200-357, looked up)
chain: CDICGKRYKNRPGLSYHYAHTHLASEEGDEAQDQETRSPPNHRNENHRPQKGPDGTVIPNNYCDFCLGGSNMNKKSGRPEELVSCADCGRSAHLGGEGRKEKEAAAAARTTEDLFGSTSESDTSTFHGFDEDDLEEPRSCRGRRSGRGSPTADKKGSC
notes: Double-PHD fingers 3 isoform DPF3a (357 amino acids), human, Uniprot Q92784-2, residues 200-357 (C2H2, truncated PHD-1/2 and disordered C-terminal domain); also called DPF3a C-terminus; source: E. coli BL21 Rosetta (DE3), purified (GSTrap FF, on-column TEV cleavage); not shown: GST, N-terminal, cleaved
Regarding B1, the binding result is recorded as “binds”.

B2: C-terminal region of DPF3b (C-TERb) (domain or fragment, human, UniProt Q92784-1 200-378, looked up)
chain: CDICGKRYKNRPGLSYHYAHTHLASEEGDEAQDQETRSPPNHRNENHRPQKGPDGTVIPNNYCDFCLGGSNMNKKSGRPEELVSCADCGRSGHPTCLQFTLNMTEAVKTYKWQCIECKSCILCGTSENDDQLLFCDDCDRGYHMYCLNPPVAEPPEGSWSCHLCWELLKEKASAFGCQA
notes: Double-PHD fingers 3 isoform DPF3b (378 amino acids), human, Uniprot Q92784-1, residues 200-378 (C2H2, PHD-1 and PHD-2 zinc fingers); also called DPF3b C-terminus; source: E. coli BL21 Rosetta (DE3), purified (GSTrap FF, on-column TEV cleavage); not shown: GST, N-terminal, cleaved
On to B2, for which the binding result is “binds”.

The values above are taken from publication PMC9738585, “Unveiling the Metal-Dependent Aggregation Properties of the C-terminal Region of Amyloidogenic Intrinsically Disordered Protein Isoforms DPF3b and DPF3a” (International Journal of Molecular Sciences, 2022).
